Data published in patent US20130216545A1, “Early Diagnosis and Novel Treatment of Cancer” (priority 2012, published 2013).
Blank lines part the entries; values can stand above or below the molecule they belong to.

Key:
Megi [1] = target: T1, Megi (Homo sapiens, UniProt O43909); assay: Cy3 immunofluorescent staining of Megi in human pancreatic adenocarcinoma cells; type: cell-based; conditions: 167 nM Reg peptide added to human pancreatic adenocarcinoma cells; FIG. 6b vs 6a
T1 construct: Megi protein is expressed in human pancreatic cancer cells; endogenous in cells
T1 sequence (O43909 1-919): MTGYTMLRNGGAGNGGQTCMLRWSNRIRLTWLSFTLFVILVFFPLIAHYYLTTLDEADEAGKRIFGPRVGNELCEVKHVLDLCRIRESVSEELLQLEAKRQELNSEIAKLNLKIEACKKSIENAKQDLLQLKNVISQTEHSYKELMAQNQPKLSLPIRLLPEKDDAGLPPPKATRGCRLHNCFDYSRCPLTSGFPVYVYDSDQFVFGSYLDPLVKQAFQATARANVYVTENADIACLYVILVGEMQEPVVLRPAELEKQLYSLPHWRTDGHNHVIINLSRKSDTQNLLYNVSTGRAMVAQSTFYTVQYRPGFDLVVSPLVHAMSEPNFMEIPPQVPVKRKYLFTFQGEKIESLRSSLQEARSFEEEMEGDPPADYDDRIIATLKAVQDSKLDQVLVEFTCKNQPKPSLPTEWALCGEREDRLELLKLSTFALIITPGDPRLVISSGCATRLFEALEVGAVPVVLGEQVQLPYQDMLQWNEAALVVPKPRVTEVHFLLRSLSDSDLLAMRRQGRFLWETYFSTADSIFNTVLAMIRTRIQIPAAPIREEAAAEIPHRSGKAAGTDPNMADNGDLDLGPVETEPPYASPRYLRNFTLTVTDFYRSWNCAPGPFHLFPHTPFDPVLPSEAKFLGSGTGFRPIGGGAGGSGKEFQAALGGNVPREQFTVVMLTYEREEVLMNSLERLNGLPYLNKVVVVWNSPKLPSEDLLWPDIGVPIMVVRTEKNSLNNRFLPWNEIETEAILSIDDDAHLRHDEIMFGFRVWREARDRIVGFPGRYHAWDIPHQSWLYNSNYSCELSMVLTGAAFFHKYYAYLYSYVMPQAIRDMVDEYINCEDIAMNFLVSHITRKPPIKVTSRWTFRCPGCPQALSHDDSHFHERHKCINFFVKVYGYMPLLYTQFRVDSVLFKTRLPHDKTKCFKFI
Protocol: To determine the presence of Megi via immunofluorescence, a continuous tumor-cell line from a human carcinoma of the exocrine pancreas were cultured in Dulbecco's Modified Eagle Medium containing 4.5 g/L glucose, 1:5 g/L sodium bicarbonate, 4 mM L-glutamine, and 10% fetal bovine serum. Cells were seeded at 50% confluence in standard growth medium. Twenty-four hours after seeding, cells were differentiated in serum free medium. Cells were mounted on cover slips and fixed in 4% paraformaldehyde and permeabilized with 0:2% Triton X-100. After being washed and blocked, cells were incubated with rabbit polyclonal anti-Megi antibody and a CY3-conjugated goat-anti-rabbit labeled fluorescent antibody. Antibodies were used at a 1:200 dilution. Coverslips were mounted and staining was analyzed on a Zeiss Axiovert 220M microscope powered by Axiovision 4.0 software with Z-stack acquisition, 3D-deconvolution, and 4D rendering modules.
Utilizing Cy3 immunofluorescent staining of Megi in human pancreatic adenocarcinoma cells in standard medium, there is immunofluorescent staining of Megi (FIG. 6a), which is well-defined at the cell borders indicating surface expression of Megi on the plasma membrane with visibly undetectable levels of Megi in the nucleus. […]

Megi [2] = target: T1, Megi; assay: Western blot analysis of Megi in cytosolic and nuclear fractions of adenocarcinoma cells; type: cell-based; conditions: Reg peptide 167 nM; 30 minutes; vs cells not treated with Reg peptide; FIG. 7g vs 7e
Protocol: The Western blot analysis of cytosolic and nuclear fractions isolated at the indicated time points with Reg peptide accelerating time of Megi translocation from the cell surface membrane to nucleus. Adenocarcinoma cells were seeded in T75 flasks in Dulbecco's Modified Eagle media containing 10% fetal bovine serum. The cells were incubated at […], 5% CO2 for 24 hours and then treated with Reg peptide at the final concentration of 167 nM. This treatment was performed once a day for four days. On the fifth day the cells were broken to obtain the cell lysates. In these cell extracts the total protein levels were determined, and 50 micrograms of total protein, were used to perform the western blot analysis. The samples containing 50 micrograms of proteins were diluted in loading buffer and loaded into each well of the gel. For gels run under reducing conditions, buffer also contained 5% of the reducing agent beta-mercaptoethanol
Analyses were performed from cytoplasmic extracts were obtained in 10 mM HEPES (pH 8.0), 1 mM EDTA, 1.5 mM MgCl2, 10 mM KCl, 0.5 mM DTT, 200 mM sucrose and 0.5% Nonidet P-40. Nuclear extracts were obtained in 20 mM HEPES (pH 7.9), 0.75 mM MgCl2, 210 mM NaCl, 50 mM KCl, 1 mM EDTA, 10% glycerol, and 0.5 mM of dithiothreitol. […] Secondary signals were developed with chemiluminescence substrate and analyzed by autoradiography.

Megi [3] = target: T1, Megi; assay: Immunofluorescent nuclear analyses of Megi translocation (Cy3 with DAPI overlay); type: cell-based; conditions: cells grown in serum-free medium with 150 μM Reg peptide; FIG. 8c, 8f
Excerpt: Immunofluorescent analyses of Megi are shown in the upper panels (FIG. 8a, FIG. 8b and FIG. 8c) indicated by the Cy3 immunofluorescent staining of Megi. […] The arrows in FIG. 8a and FIG. 8d delineate the cell borders, whereas the nuclei are shown in light grey contrast in FIG. 8d.
The middle images (FIG. 8b and FIG. 8e) are cells grown in SFM. Megi is localized in the cytoplasm, as indicated by cytoplasmic Cy3 staining. The arrows in FIG. 8b and FIG. 8e show the lack of staining in the position of the nuclei. […] In the lower image (FIG. 80, there is an overlap of Megi-Cy3 staining and nuclear DAPI staining that corroborates that there is nuclear localization of Megi indicated by the arrows in FIG. 8f. In the lower image (FIG. 8f) of cells grown in SFM and Reg peptide, the arrows indicate the position of the nuclei, which now stains for Megi. Scale bar=20 μm in all images.
Immunofluorescent analyses are shown in the upper, panels (FIG. 8a, FIG. 8b and FIG. 8c) indicated by the Cy3 immunofluorescent staining of Megi. […]

rabbits = assay: Enzyme ImmunoAssay titers of polyclonal antibodies raised in rabbits to a Megi peptide; type: in vivo, rabbit; conditions: for 50% titer: test bleed 31 days after day 0 and day 21 boosts, KLH-conjugated peptide, unconjugated screening antigen
Protocol: Data sets were taken from the bleed after the day 0 and day 21 boosts. The animals were injected with a peptide of SEQ ID NO: 4 and were conjugated to keyhole limpet hemocyanin (KLH). The screening antigen is not conjugated to KLH so that the response solely to the peptide and not to KLH can be identified. The 50% titer is a dilution value where the signal is half-way between the peak and the baseline, so the higher the dilution value (titer), the greater the response to the antigen. The positive control is an internal control that was generated from ovalbumin antibodies in rabbit. At a dilution of 1:759,000, the absorbance fell within a range of 0.45 to 0.9. In the case of the response to SEQ ID NO: 4, there was a high response. The data shown in FIG. 9 from the prebleed sample obtained on Dec. 8, 2010 was <100 (negative) for both rabbits, CD 153 and CD 154.

Megi receptor = conditions: rat hippocampus; effect abolished by downregulating Megi by shRNA; cited from earlier work

nuclear levels of Megi (Megi nuclear translocation) (Megi [2]): higher nuclear levels of Megi
subcellular localization of Megi (Megi [3]): translocation of Megi into the nucleus
Molecule: Reg peptide: common Reg peptide sequence (SEQ ID NO: 10) selected from Reg1α, Reg1β, Reg3α and RegIV, synthesized by Bachem (IGLHDPTQGTEPNG)
cellular staining of Megi (Megi [1]): greater expression of Megi inside of the cell

50% titer (rabbits; rabbit CD 153): 36,000
50% titer (rabbits; rabbit CD 154): 125,000
response to the antigen (rabbits; rabbits immunised with KLH-conjugated peptide): high response
Molecule: SEQ ID NO: 4: 20 amino acid Megi peptide (amino acids 17-36) used as immunogen to raise polyclonal antibodies in rabbits (CKKSIENAKQDLLQLKNVIS)

B1: recombinant Reg1α: recombinant regenerating islet-derived 1 alpha protein used by Van Ba on rat hippocampus (protein)
chain: QEAQTELPQARISCPEGTNAYRSYCYYFNEDRETWVDADLYCQNMNSGNLVSVLTQAEGAFVASLIKESGTDDFNVWIGLHDPKKNRRWHWSSGSLVSYKSWGIGAPSSVNPGYCVSLTSSTGFQKWKDVPCEDKFSFVCKFKN
neurite outgrowth (Megi receptor): increased neurite outgrowth
